Experiment [1] has as its target IL-2 receptor signaling complex on primary human NK cells and CD8+ T cells (IL-2Rβγ) (human) (UniProt P14784). Kind of experiment: cell-based or functional assay. More on the design: unit not given beside the values.
Experiment [2] deals with IL-2 receptor signaling complex on primary human Treg cells (IL-2Rα expressing; IL-2Rαβγ) (human) (UniProt P01589). Kind of experiment: cell-based or functional assay. Also noted: unit not given beside the values.
IL-2 receptor signaling complex on primary human Treg cells (IL-2Rα expressing; IL-2Rαβγ) (human), sequence (P01589 22-272, chain 1 of 3): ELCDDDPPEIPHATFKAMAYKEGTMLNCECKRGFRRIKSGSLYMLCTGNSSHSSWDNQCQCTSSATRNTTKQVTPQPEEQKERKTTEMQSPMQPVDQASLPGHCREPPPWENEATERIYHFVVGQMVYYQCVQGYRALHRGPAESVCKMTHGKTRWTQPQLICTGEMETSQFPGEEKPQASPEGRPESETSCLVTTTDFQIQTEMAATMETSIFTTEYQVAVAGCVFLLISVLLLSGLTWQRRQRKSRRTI
IL-2 receptor signaling complex on primary human Treg cells (IL-2Rα expressing; IL-2Rαβγ) (human), sequence (P14784 27-551, chain 2 of 3, further chain): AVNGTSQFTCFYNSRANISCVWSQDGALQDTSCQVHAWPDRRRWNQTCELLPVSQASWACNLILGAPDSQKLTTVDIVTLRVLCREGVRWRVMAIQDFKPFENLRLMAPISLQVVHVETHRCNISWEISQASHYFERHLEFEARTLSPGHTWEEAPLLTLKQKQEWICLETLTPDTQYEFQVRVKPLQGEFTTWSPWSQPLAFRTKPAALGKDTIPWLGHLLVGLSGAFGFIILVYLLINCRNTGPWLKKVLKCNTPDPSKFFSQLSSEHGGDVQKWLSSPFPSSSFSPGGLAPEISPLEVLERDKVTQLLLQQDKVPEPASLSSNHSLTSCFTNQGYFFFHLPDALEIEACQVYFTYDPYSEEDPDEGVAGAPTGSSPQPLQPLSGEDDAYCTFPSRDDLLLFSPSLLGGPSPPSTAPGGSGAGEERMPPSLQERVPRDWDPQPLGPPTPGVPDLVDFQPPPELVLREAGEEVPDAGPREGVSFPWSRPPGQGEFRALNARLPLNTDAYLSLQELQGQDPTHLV
IL-2 receptor signaling complex on primary human Treg cells (IL-2Rα expressing; IL-2Rαβγ) (human), sequence (P31785 23-369, chain 3 of 3, further chain): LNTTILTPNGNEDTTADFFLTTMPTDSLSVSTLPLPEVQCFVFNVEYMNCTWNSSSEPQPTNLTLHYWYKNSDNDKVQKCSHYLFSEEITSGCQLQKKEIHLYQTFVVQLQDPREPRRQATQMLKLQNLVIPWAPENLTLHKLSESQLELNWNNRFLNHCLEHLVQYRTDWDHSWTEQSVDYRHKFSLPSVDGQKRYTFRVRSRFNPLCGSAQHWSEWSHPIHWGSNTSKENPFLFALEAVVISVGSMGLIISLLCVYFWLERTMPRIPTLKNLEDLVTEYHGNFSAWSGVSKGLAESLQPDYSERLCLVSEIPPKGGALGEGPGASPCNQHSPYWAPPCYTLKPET

IL-2 receptor signaling complex on primary human NK cells and CD8+ T cells (IL-2Rβγ) (human), sequence (P14784 27-551, chain 1 of 2): as the sequence (P14784 27-551, chain 2 of 3, further chain) above
IL-2 receptor signaling complex on primary human NK cells and CD8+ T cells (IL-2Rβγ) (human), sequence (P31785 23-369, chain 2 of 2, further chain): as the sequence (P31785 23-369, chain 3 of 3, further chain) above
S127_30kD, sequence (P60568 other isoform, or with tags, fused parts or gaps limits assumed): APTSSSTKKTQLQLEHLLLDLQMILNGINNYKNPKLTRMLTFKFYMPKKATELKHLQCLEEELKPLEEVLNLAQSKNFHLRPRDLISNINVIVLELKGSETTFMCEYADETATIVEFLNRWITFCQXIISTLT

For the substance “N88R (from UniProt P60568 21-153) (ligand)”, in experiment [1], the EC50 for pSTAT5 signaling, CD8+ T cells stood at 1.5e+07 and the EC50 for pSTAT5 signaling, NK cells was determined as 2.31e+06. For the same substance, in experiment [2], the EC50 for pSTAT5 signaling, Treg cells was determined as 11100.
For “N88R/D109_30kD (from UniProt P60568 21-153) (ligand)” the same measures were 1.25e+07, 2.78e+06 and 176000.
In experiment [2], “S127_30kD (from UniProt P60568 21-153) (ligand)” had an EC50 for pSTAT5 signaling, Treg cells of 150.
In experiment [1], “V91K (from UniProt P60568 21-153) (ligand)” had an EC50 for pSTAT5 signaling, CD8+ T cells of 102000 and an EC50 for pSTAT5 signaling, NK cells of 20500. Besides, the EC50 for pSTAT5 signaling, Treg cells in experiment [2] stood at 142.

The values above are taken from patent US20220016249A1.
